# Assay results: the DeepSol protein solubility set
# Test: soluble on expression in E. coli; label from the status in PepcDB or PDB records
row,Sequence,soluble on expression in E. coli
1,MTYGVISWWDYGHWIEAVAHRMPIANPFQAGIGNKYNNVPGASSFFTAENESYAEFVAEKLNVKYVVSDIEMETGKYYAMAVWAEGDLPLAEKYYGGYFYYSPTGTFGYANSQWDIPLNSIIIPLRIPSELYYSTMEAKLHLFDGSGLSHYRMIYESDYPAEWKSYSSQVNLNNESQVLQTALYEAVMRARYGVSPTLEHHHHHH,not soluble
2,MSIEEEDTNKITCTQDFLHQYFVTERVSIQFGLNNKTVKRINKDEFDKAVNCIMSWTNYPKPGLKRTASTYLLSNSFKKSATVSLPFILGDPVCMPKRVESNNNDTCLLYSDTLYDDPLIQRNDQAGDEIEDEFSFTLLRSEVNEIRPISSSSTAQILQSDYSALMYERQASNGSIFQFSSP,not soluble
3,MLSIREYLEAGETTISNLLFDHYQKIGLKDDEFLFLLQLFRSQNAGDLFPDLMAIAETMGKTPDTIYKLLNQLVSRGFIRIETQQNQKGQMMDTYDLLPVFQKIQLFLQTSKEKQVVANHEDEIKQLYQGFEKEFGRPLSPIELEMIGQWLNTDHYSPELIRLALREAVLNQAYSLKYIDRILLAWERKNITTKEQVAADQKKRKDSMIQNEIEQQGQTQESLPKVTLHNWLNPEDSE,soluble
4,MGSDKIHHHHHHMAAEIIAVTQQKGGVGKSTIAMHLGAAFHEKGRRVLVIDADGQNTLVHWSSSSADSESGIPFPVVNLAEAGSQIHREIKKFINDYDIIIVDCPPSITEKVSGVVLLAATIAVIPTSSSPADYWSSVGLVKLIQQAQVMNEDLRAVFLLNKTEEKRMLTRELKRALEELGFPLLKTQIPTREAYKQAMALGQTVLQMNDRGAKLAAAEIRACADEIVAMLP,not soluble
5,METPQDSRQSIQKPPSPAAEEDKEEQPGGNAVVSGAPEERIDKKELVLNWLAQGEFDQGEGAQGEVAGGEQAQEEPAPLSPAQEATGGEEEGENKEGEMEGRHAGDGASSSEDDSILEEGGENIDQQPPQQEAASPDSIRNPHVLNRLAQLRYRRTRFTHFQLHDLERLFQETRYPSLRARRDLARWMGVDECDVQNWFRMRRALFQRNRRVLMFCELPPLPQSDSP,soluble
6,KLEEEPYLKGTVNTVIYHNDTNLYTVLKVKVTETSEAIEDKAVSVTGYFPALQEEETYTFYGKIVTHPKFGLQFQAEHFKKEIPTTKEGIIQYLSSDLFEGIGKKTAEEIVKKLGDSAINKILADASVLYDVPRLSKKKADTLAGALQRHQGLEQIMISLNQFGFGPQLSMKIYQAYESETLEKIQENPYQLVKDVEGIGFGKADELGSRMGLSGNHPERVKAAILYTLETTCLSEGHTYIETEQLIIDTQSLLNQSAREGQRITEMDAANAIIALGENKDIVIEDGRCYFPSLFYAEQNVAKRVKHIASQTEYENQFPESEFLLALGELEERMDVQYAPSQKEAIQKALSSPMLLLTGGPGTGKTTVIRGIVELYGELHGVSLDPSAYKKDEAFPIVLAAPTGRAAKRMSESTGLPAVTIHRLLGWNGAEGFTHTEDQPIEGKLLIIDEASMLDIWLANHLFKAIPDHIQIIIVGDEDQLPSVGPGQVLRDLLASQVIPTVRLTDIYRQAEGSSIVELAHQMKNGLLPNNLTAPTKDRSFIRCGGSQIKEVVEKVVANALKKGYTAKDIQVLAPMYRGKAGINELNVMLQDILNPPKEKRRELKFGDVVYRTGDKILQLVNQPENNVFNGDIGEITSIFYAKENTEKEDMAVVSFDGNEMTFTKKDFNQFTHAYCCSIHKSQGSEFPIVVLPVVKGYYRMLRRNLLYTAITRAKKFLILCGEEEALEWGVKNNDATVRQTSLKNRLSVQVEEMDAELEALQKELPFSVHDANIGMEGITPFDFM,not soluble
7,MTTVLLDSHVAYWWSAEPQRLSMAASQAIEHADELAVAAISWFELAWLAEQERIQLAIPVLSWLQQLAEHVRTVGITPSVAATAVALPSSFPGDPADRLIYATAIEHGWRLVTKDRRLRSHRHPRPVTVW,soluble
8,MATVTTHASASIFRPCTSKPRFLTGSSGRLNRDLSFTSIGSSAKTSSFKVEAKKGEWLPGLASPDYLTGSLAGDNGFDPLGLAEDPENLKWFVQAELVNGRWAMLGVAGMLLPEVFTKIGIINVPEWYDAGKEQYFASSSTLFVIEFILFHYVEIRRWQDIKNPGSVNQDPIFKQYSLPKGEVGYPGGIFNPLNFAPTQEAKEKELANGRLAMLAFLGFVVQHNVTGKGPFENLLQHLSDPWHNTIVQTFN,soluble
9,AAGTAKGHNPTEFPTIYDASSAPTAANTTVGIITIGGVSQTLQDLQQFTSANGLASVNTQTIQTGSSNGDYSDDQQGQGEWDLDSQSIVGSAGGAVQQLLFYMADQSASGNTGLTQAFNQAVSDNVAKVINVSLGWCEADANADGTLQAEDRIFATAAAQGQTFSVSSGDEGVYECNNRGYPDGSTYSVSWPASSPNVIAVGGTTLYTTSAGAYSNETVWNEGLDSNGKLWATGGGYSVYESKPSWQSVVSGTPGRRLLPDISFDAAQGTGALIYNYGQLQQIGGTSLASPIFVGLWARLQSANSNSLGFPAASFYSAISSTPSLVHDVKSGNNGYGGYGYNAGTGWDYPTGWGSLDIAKLSAYIRSNGFGH,soluble
10,MATSAMFILDLKGKTIISRNYRGDIDMTAIDKFIHLLMEKEEEGSAAPVLTYQDTNFVFIKHTNIYLVSACRSNVNVTMILSFLYKCVEVFSEYFKDVEEESVRDNFVVIYELLDEMMDFGFPQTTESRILQEYITQEGQKLISAPRPPMAVTNAVSWRSEGIKYRKNEVFLDVIESVNMLASANGTVLQSEIVGSVKMRVYLTGMPELRLGLNDKVLFEGSGRGKSKSVELEDVKFHQCVRLSRFDTDRTISFIPPDGAFELMSYRLTTVVKPLIWIETSIERHSHSRVSFIIKAKSQFKRRSTANNVEIIIPVPSDADSPKFKTSIGSVKYTPEQSAFVWTIKNFPGGKEYLLTAHLSLPSVMSEESEGRPPIKVKFEIPYFTTSGIQVRYLKIIEKSGYQALPWVRYITQNGEYEMRMK,not soluble
11,LYWGDGQVWFDLPDKVTTHDSQLVGNLTELLKSVEHSFVLISPYFIPTEAGTKALTNAAKRGVDITIVTNSLASNDVFAVHGWYAKYREDLLESGIKLWEVKSSAKLKSKWSLTGSSRASLHAKAMTIDDKTLFVGSMNWDPRSAALNTEMAVVIEQPEYVQAFLAKLPSQLKDNAYRLTLRDGDIVWTNTKTGEEYDSEPEAGVFRRLGAWFSGILPIEDQL,not soluble
12,MTSSAMDNNEPKVLEMVYDATILPECSGMDPSIIDCINRHINMRIQRSYSSNIIAILDRFLMMNKDELNNTQCHIIKEFMTYEQMAIDYYGGYVNAILYQIRKRPNQHHTIDLFKRIKRTRYDTFKVNPVEFVKKVIGFVSILNKYKPIYSYVLYENVLYDELKCFIDYVETKYFQN,not soluble
13,PPKWKVKKQKLAEKAAREAELTAKKAQARQALSIYLNLPTLDEAVNTLKPWWPGLFDGDTPRLLACGIRDVLLEDVAQRNIPLSHKKLRRAMKAITRSESYLCAMKAGACRYDTEGYVTEHISQEEEVYAAERLDKIRRQNRIKAELQAVLD,soluble
14,MGSDKIHHHHHHMKQIPLAERMRPKTLADYVGQQHLIGSGAVLRQMIEQGQTPSMILWGPPGVGKTTLAEIIAHEVDAPFYTLSAVSSGVKEVREVIADIESNRGNLFDKGGRAILFIDEIHRFSKSQQDSLLAAVERGIVTLIGATTENPSFEVIRPLLSRCQVYVLKPQSDEDLLLLAHRAIDRDELLAAKHPVLEETEALLLYAGGDARKLLNILDLLATSEVEDRLVITNEKIRQRLQENPAAFDKGGELHYDIASAFIKSIRGSDPDAAIYWLARLIDGGEEPSFIARRLIISASEDIGLANPNAMLIAMACAEALDRIGWPEGRIPLAEATIYLATSEKSNSAYLAIDSALEYVRQSGNLPVPLHLRNAPTRLMADLDYGKGYKYSHDFPEHFVSQQYLPDKAANTSFWTPQMHTVHEAKLGERMKRWWKREKSQKDTAE,not soluble
15,MVSYKARISLSGTEHRVVDRVCNEIKEIASRTGVEIHGPMPLPTKRLVVPVRKSPDGEGTNTWDHWEMRIHKRLIDVDADERTLRQLMRIPIPDGVQIEIQIKS,soluble
16,MLAVSFIAGVILIGLYGVDSSERYIAVSELLANPQDYSGQNINAMGVVEDRSLHKDPGVTSFDLKDENDENLKIHVNYVGNLPSNLAEGKQVTIRGSMISESTFEANKIVTGCPSKYTELEHHHHHH,not soluble
17,MGSDKIHHHHHHMINPIILPLDKVRNPRDLGSYVGYNGRKIKMHRLLRTGKISNITEHDKKFLLDYGLTKIIDLRSPFECKKAPDSQIPGVEHIDLSISTEDNTKGGKKDITKVFETYRKDQYAGFNMMCDRYRSHVMKEHAQHALHSILEVLANTKDGAIIYHCSEGKDRTGIVTVLILYLLGVDMETIRQDYLYSNYMLDNYRASRDKIMQENGENLCFRANMRILGSVSDAFLDTSLIAIHKNFGSLDNYLKEIIGVTPELRDTLRELYLED,not soluble
18,MLTIHTKLISAMITQSLKDHPIETCGIIAGLAGSNLPLRLIPMRNVAQSENFFMFDPQQQLQVWKEMSARHEEPVVIYHSHTGSEAYPSRSDVELAAEPQAHYVIIPTCSPHKEEIRSFRIVDQMVIEERVQIVRQYQPELEFQMMVALEHHHHHH,not soluble
19,MSSATASIKLSNGVEMPVIGLGTWQSSPAEVITAVKTAVKAGYRLIDTASVYQNEEAIGTAIKELLEEGVVKREELFITTKAWTHELAPGKLEGGLRESLKKLQLEYVDLYLAHMPAAFNDDMSEHIASPVEDVWRQFDAVYKAGLAKAVGVSNWNNDQISRALALGLTPVHNSQVELHLYFPQHDHVDFCKKHNISVTSYATLGSPGRVNFTLPTGQKLDWAPAPSDLQDQNVLALAEKTHKTPAQVLLRYALDRGCAILPKSIQENRIKENFEVFDFSLTEEDIAKLEESKNSQRLFLQDFMTGHPEDAFAAERK,soluble
20,MGKVNVAKLRYMSRDDFRVLTAVEMGMKNHEIVPGSLIASIASLKHGGCNKVLRELVKHKLIAWERTKTVQGYRLTNAGYDYLALKTLSSRQVVESVGNQMGVGKESDIYIVANEEGQQFALKLHRLGRTSFRNLKNKRDYHKYRHNVSWLYLSRLSAMKEFAYMKALYERKFPVPKPIDYNRHAVVMELINGYPLCQIHHVEDPASVYDEAMELIVKLANHGLIHGDFNEFNLILDESDHITMIDFPQMVSTSHPNAEWYFDRDVKCIKDFFMKRFSYESELFPTFKDIRREDTLDVEVSASGYTKEMQADDELLHPLGPDDKNIETKEGSEFSFSDGEVAEKAEVYGSENESERNCLEESEGCYCRSSGDPEQIKEDSLSEESADARSFEMTEFNQALEEIKGQVVENNSVTEFSEEKNRTENYNRQDGQRVQGGVPAGSDEYEDECPHLIALSSLNREFRPFRDEENVGAMNQYRTRTLSITSSGSAVSCSTIPPELVKQKVKRQLTKQQKSAVRRRLQKGEANIFTKQRRENMQNIKSSLEAASFWGE,not soluble
21,MGSDKIHHHHHHMKVDWDHLQFFLVLARTKTLTNAARIIGVEHSTVARRIQALELALGTTLFKREATGYELTLEGMALVPRVEQMEQAFLQIEKPHQPLQGRVRIGTPEGFGTAFLARLLAEFSIQYPLLTIDLIPVPKMIKLSHREADIVVSIERPTSGPYIITRLSDYCLKIYGSQNYLAQNPPIRRLEDLTQHRFVNYIDDLVYSPELYCLERLPLKLNANFRSSSILAQQIAVSAGAGLAILPKFLADDKPELEEVLEQQVRFTHTFWMLTFVDLQHEPRIKLVWDYLRKQADKYQHLLVD,not soluble
